Values quoted from earlier work, collected in publication PMC12073169.

Molecular target: ATG3 (Homo sapiens) (UniProt Q9NT62)
Sequence of UniProt Q9NT62 (Q9NT62 whole entry): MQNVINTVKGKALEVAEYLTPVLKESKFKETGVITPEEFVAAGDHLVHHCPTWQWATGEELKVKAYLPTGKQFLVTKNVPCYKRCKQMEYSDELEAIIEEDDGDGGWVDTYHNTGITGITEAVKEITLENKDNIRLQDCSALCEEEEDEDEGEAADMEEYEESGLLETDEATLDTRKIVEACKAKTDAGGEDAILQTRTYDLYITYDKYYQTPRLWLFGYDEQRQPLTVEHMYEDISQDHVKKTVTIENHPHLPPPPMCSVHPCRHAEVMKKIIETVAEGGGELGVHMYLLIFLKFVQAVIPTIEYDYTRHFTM

- Kd: 0.35 µM
Substance: ATG7 (from UniProt O95352)
